Three molecules from publication PMC6237739 can be followed below.

The target in one data set is rS1 full-length (Vibrio vulnificus CMCP6, UniProt A0A3Q0L6Y6). Kind of data set: EMSA.
In a further data set the target is rS1-D4 (Vibrio vulnificus CMCP6, UniProt A0A3Q0L6Y6 277-347). Description: EMSA.
The target of the next data set is rS1-D5 (Vibrio vulnificus CMCP6, UniProt A0A3Q0L6Y6 364-434). Kind of data set: EMSA.
For the next data set, the target named is rS1-D3 (Vibrio vulnificus CMCP6, UniProt A0A3Q0L6Y6 192-260). Kind of data set: EMSA.
Another data set deals with rS1-D45 (Vibrio vulnificus CMCP6, UniProt A0A3Q0L6Y6). Description: EMSA.
For another data set, the target named is rS1-D34 (Vibrio vulnificus CMCP6, UniProt A0A3Q0L6Y6). Kind of data set: NMR titration.

B1: add Asw full-length (112 nt) (structured_RNA)
RNA: GCUUCAUAUAAUCCUAAUGAUAUGGUUUGGGAGUUUCUACCAAGAGCCUUAAACUCUUGAUUAUGAAGUCUGUCGCUUUAUCCGAAAUUUUAUAAAGAGAAGACUCAUGAAU
Take B1: binding in the data set with rS1 full-length was characterised by a dissociation constant (Kd) of 3000 ± 1000 nM. Further, the binding result with rS1-D4, with rS1-D5, in the data set with rS1-D3 and in the data set with rS1-D45 was “no binding” each time.
On to UCAUGAAU (ssRNA) [Asw-8], for which, in the data set with rS1-D34, binding was characterised by a dissociation constant (Kd) of 197 ± 50 µM.
ACUCAUGAAU (ssRNA) [Asw-10] yielded a Kd in the data set with rS1-D34 of 57 ± 6 µM.
